According to article doi:10.1101/2025.04.01.646186 (bioRxiv, 2025):

Target: PSMA2 (subunit of the human 20S proteasome) (human, UniProt P25787 1-234)
Test: cryo-EM structure

Sequence of PSMA2 (subunit of the human 20S proteasome) (P25787 whole entry): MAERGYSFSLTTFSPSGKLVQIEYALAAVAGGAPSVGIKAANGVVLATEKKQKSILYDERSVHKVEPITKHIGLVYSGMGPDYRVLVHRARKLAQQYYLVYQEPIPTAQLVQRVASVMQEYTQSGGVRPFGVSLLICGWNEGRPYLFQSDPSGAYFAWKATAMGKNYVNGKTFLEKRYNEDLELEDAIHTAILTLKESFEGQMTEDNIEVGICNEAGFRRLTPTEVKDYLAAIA

Binder: H-DNDDDLYG-OH [VCP C-terminal HbYX peptide H-DNDDDLYG-OH]
- binding result: binds
